# Assay results taken from patent US20070104726A1.
# Experiments:
# [1] = target: IgG constant region-CD21 fusion protein (UniProt P20023); test: ELISA, IgG constant region-CD21 fusion coated; reference monomeric C3d (Calbiochem)
# [2] = target: CD21 (CR2) on human CD21+ Raji lymphoblastoid cells (human) (UniProt P20023); test: flow cytometry on Raji cells, 100 nM; reference monomeric C3d (Calbiochem)
substance,measurement,setting,value
"linear trimer of human C3d, called C3d3 or APT2029",fold increase in gradient of the linear portion of the binding curve against monomeric C3d,[1],3.4 fold
same,fold signal intensity increase against C3d (Calbiochem),[2],6.4 fold
